Consider one substance from patent publication US5616484.

The target in the data set is T1, ApaLI restriction endonuclease (apaLIR product, 375 aa) (Acetobacter pasteurianus) (UniProt O52703).
T1 sequence: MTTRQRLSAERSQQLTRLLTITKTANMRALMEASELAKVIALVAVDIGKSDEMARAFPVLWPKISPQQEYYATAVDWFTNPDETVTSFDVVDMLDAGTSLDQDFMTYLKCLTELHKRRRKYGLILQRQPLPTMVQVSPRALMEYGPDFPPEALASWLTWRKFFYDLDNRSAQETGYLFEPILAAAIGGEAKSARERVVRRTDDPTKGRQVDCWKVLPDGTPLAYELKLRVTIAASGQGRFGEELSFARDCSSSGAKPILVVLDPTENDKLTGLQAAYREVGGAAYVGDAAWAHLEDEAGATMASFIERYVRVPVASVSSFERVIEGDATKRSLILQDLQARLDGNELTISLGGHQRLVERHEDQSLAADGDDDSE
The data set can be described thus: cleavage_in_vitro. The settings on record: diluted cell extract, 1 ug lambda DNA, 1 h, 37 C.

As to lambda DNA, the activity (units/g wet cells) is 1e+06.
